Results: patent US20230220042A1 (SHANGHAI JIAO TONG UNIVERSITY SCHOOL OF MEDICINE, published 2023)
Substitutions are numbered along the chain they refer to. Names and notes keep the numbering of the source.

T1: Biotin-FcγRIIB (human, UniProt P31994 43-217, limits assumed, biotin label)
T1 construct: Soluble labelled protein used to stain and sort the display cells; also called human FcγRIIB; CD32b
T1 sequence (looked up): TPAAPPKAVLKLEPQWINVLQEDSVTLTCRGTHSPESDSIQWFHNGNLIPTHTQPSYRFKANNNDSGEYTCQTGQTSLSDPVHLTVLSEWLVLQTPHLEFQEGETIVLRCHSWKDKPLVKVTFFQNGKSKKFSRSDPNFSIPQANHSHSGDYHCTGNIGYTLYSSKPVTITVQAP

B1: anti-human OX40 antibody, human IgG2 Fc mutant Mut_22 (V266L/S267M/H268E/P271Q) (antibody, name in EU numbering)
heavy: QVQLQESGPGLVKPSGTLSLTCAVSGGSISSSIWWSWVRQPPGKGLEWIGEIHHSGNTNCNPSLKSRVTISIDKSKNQFSLKLTSVTAADTAVYYCARAGTGTTLDYWGQGTLVTVSSASTKGPSVFPLAPCSRSTSESTAALGCLVKDYFPEPVTVSWNSGALTSGVHTFPAVLQSSGLYSLSSVVTVPSSNFGTQTYTCNVDHKPSNTKVDKTVERKCCVECPPCPAPPVAGPSVFLFPPKPKDTLMISRTPEVTCVVVDLMEEDQEVQFNWYVDGVEVHNAKTKPREEQFNSTFRVVSVLTVVHQDWLNGKEYKCKVSNKGLPAPIEKTISKTKGQPREPQVYTLPPSREEMTKNQVSLTCLVKGFYPSDIAVEWESNGQPENNYKTTPPMLDSDGSFFLYSKLTVDKSRWQQGNVFSCSVMHEALHNHYTQKSLSLSPGK
light: EIVLTQSPGTLSLSPGERATLSCRASQSVSGDYLAWYQQKLGQAPRLLIYGASIRATGIPDRFSGSGSGTDFTLTISKLEPEDFAVYYCQQYGSSPLTFGGGTKVEIKRTVAAPSVFIFPPSDEQLKSGTASVVCLLNNFYPREAKVQWKVDNALQSGNSQESVTEQDSKDSTYSLSSTLTLSKADYEKHKVYACEVTHQGLSSPVTKSFNRGEC
B2: anti-human OX40 antibody, human IgG2 Fc mutant Mut_23 (V266L/S267E/E269K/P271G) (antibody, name in EU numbering)
heavy: B1 heavy with M264E, E265H, E266K, Q268G
light: B1 light
B3: anti-human OX40 antibody, human IgG2 Fc mutant Mut_24 (V266L/S267E/H268S/E269G/P271T) (antibody, name in EU numbering)
heavy: B1 heavy with M264E, E265S, E266G, Q268T
light: B1 light
B4: human IgG2 anti-mouse CD40 surface displayed antibody, V234Q/V266L/S267E/H268S/E269V (antibody)
light chain (with the P2A rest): DTVLTQSPALAVSPGERVTISCRASDSVSTLMHWYQQKPGQQPKLLIYLASHLESGVPARFSGSGSGTDFTLTIDPVEADDTATYYCQQSWNDPWTFGGGTKLELKRTVAAPSVFIFPPSDEQLKSGTASVVCLLNNFYPREAKVQWKVDNALQSGNSQESVTEQDSKDSTYSLSSTLTLSKADYEKHKVYACEVTHQGLSSPVTKSFNRGECGSGATNFSLLKQAGDVEENPG
heavy: EVQLVESDGGLVQPGRSLKLPCAASGFTFSDYYMAWVRQAPTKGLEWVASISYDGSSTYYRDSVKGRFTISRDNAKSTLYLQMDSLRSEDTATYYCGRHSSYFDYWGQGVMVTVSSASTKGPSVFPLAPCSRSTSESTAALGCLVKDYFPEPVTVSWNSGALTSGVHTFPAVLQSSGLYSLSSVVTVPSSNFGTQTYTCNVDHKPSNTKVDKTVERKCCVECPPCPAPPQAGPSVFLFPPKPKDTLMISRTPEVTCVVVDLESVDPEVQFNWYVDGVEVHNAKTKPREEQFNSTFRVVSVLTVVHQDWLNGKEYKCKVSNKGLPAPIEKTISKTKGQPREPQVYTLPPSREEMTKNQVSLTCLVKGFYPSDIAVEWESNGQPENNYKTTPPMLDSDGSFFLYSKLTVDKSRWQQGNVFSCSVMHEALHNHYTQKSLSLSPGKLEPPPSTVSNMATVAVLVVLGAAIVTGAVVAFVMKMRRRNTGGKGGDYALAPGSQTSDLSLPDCKVMVHDPHSLA
notes: As m1 with the Fc mutations; copies: 2 + 2
B5: human IgG2 anti-mouse CD40 surface displayed antibody, V266L/S267D/H268D/E269D/P271Q (antibody, name in EU numbering)
light chain (with the P2A rest): B4 light chain (with the P2A rest)
heavy chain: B4 heavy with Q230V, E262D, S263D, V264D, P266Q
notes: As m1 with the Fc mutations
B6: human IgG2 anti-mouse CD40 surface displayed antibody, V266L/S267E/E269K/P271G (antibody, name in EU numbering)
light chain (with the P2A rest): B4 light chain (with the P2A rest)
heavy chain: B4 heavy with Q230V, S263H, V264K, P266G
notes: As m1 with the Fc mutations
B7: human IgG2 anti-mouse CD40 surface displayed antibody, V266L/S267E/H268S/E269A/P271C (antibody, name in EU numbering)
light chain (with the P2A rest): B4 light chain (with the P2A rest)
heavy chain: B4 heavy with Q230V, V264A, P266C
notes: As m1 with the Fc mutations
B8: human IgG2 anti-mouse CD40 surface displayed antibody, V266L/S267E/H268S/E269G/P271T (antibody, name in EU numbering)
light chain (with the P2A rest): B4 light chain (with the P2A rest)
heavy chain: B4 heavy with Q230V, V264G, P266T
notes: As m1 with the Fc mutations
B9: human IgG2 anti-mouse CD40 surface displayed antibody, V266L/S267E/H268S/E269V (antibody, name in EU numbering)
light chain (with the P2A rest): B4 light chain (with the P2A rest)
heavy chain: B4 heavy with Q230V
notes: As m1 with the Fc mutations
B10: human IgG2 anti-mouse CD40 surface displayed antibody, V266L/S267E/H268S/E269V/P271C (antibody, name in EU numbering)
light chain (with the P2A rest): B4 light chain (with the P2A rest)
heavy chain: B4 heavy with Q230V, P266C
notes: As m1 with the Fc mutations
B11: human IgG2 anti-mouse CD40 surface displayed antibody, V266L/S267M/H268E/P271Q (antibody, name in EU numbering)
light chain (with the P2A rest): B4 light chain (with the P2A rest)
heavy chain: B4 heavy with Q230V, E262M, S263E, V264E, P266Q
notes: As m1 with the Fc mutations

What was measured:
human OX40 (human) = human OX40 (human) (UniProt P43489); test: cell-based or functional assay
Sequence of human OX40 (human) (P43489 29-277): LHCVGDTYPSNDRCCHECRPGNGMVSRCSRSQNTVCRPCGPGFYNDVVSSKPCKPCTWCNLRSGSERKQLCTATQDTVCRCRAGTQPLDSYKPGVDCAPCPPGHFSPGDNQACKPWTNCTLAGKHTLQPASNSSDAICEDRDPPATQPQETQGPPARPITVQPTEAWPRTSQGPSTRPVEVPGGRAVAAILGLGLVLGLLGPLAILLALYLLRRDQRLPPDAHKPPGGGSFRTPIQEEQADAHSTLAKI

Biotin-FcγRIIB = molecular target: T1, Biotin-FcγRIIB; test: NGS of 3T3 display library C2 flow-sorted for FcγRIIB binding

Binder | enrichment factor, percentage after 3rd sorting/percentage after 2nd sorting (Biotin-FcγRIIB) | percentage after 2nd sorting (Biotin-FcγRIIB) | percentage after 3rd sorting (Biotin-FcγRIIB) | enrichment factor, percentage after 1st sorting/percentage before sorting (Biotin-FcγRIIB) | enrichment factor, percentage after 2nd sorting/percentage after 1st sorting (Biotin-FcγRIIB) | enrichment factor, percentage after 3rd sorting/percentage before sorting (Biotin-FcγRIIB) | increased factor, mutant enrichment factor/wild-type enrichment factor (Biotin-FcγRIIB) | percentage after 1st sorting (Biotin-FcγRIIB) | percentage before sorting (Biotin-FcγRIIB) | other results
B1 | – | – | – | – | – | – | – | – | – | Average increased factor of the activity over wild-type IgG2 of two experiments (human OX40 (human)): 9.9; Average relative activity of two experiments (human OX40 (human)): 0.43; Experiment 2 CFSE fluorescence intensity, 0.1 µg/ml (human OX40 (human)): 2290; Experiment 2 CFSE fluorescence intensity, 1 µg/ml (human OX40 (human)): 1790; Experiment 2 average relative activity (human OX40 (human)): 0.43; Experiment 2 relative activity, 0.1 µg/ml (human OX40 (human)): 0.3; Experiment 2 relative activity, 1 µg/ml (human OX40 (human)): 0.56
B2 | – | – | – | – | – | – | – | – | – | Average increased factor of the activity over wild-type IgG2 of two experiments (human OX40 (human)): 9.8; Average relative activity of two experiments (human OX40 (human)): 0.43; Experiment 1 CFSE fluorescence intensity, 0.01 µg/ml (human OX40 (human)): 898; Experiment 1 CFSE fluorescence intensity, 0.1 µg/ml (human OX40 (human)): 777; Experiment 1 CFSE fluorescence intensity, 1 µg/ml (human OX40 (human)): 843; Experiment 1 average relative activity (human OX40 (human)): 0.37; Experiment 1 relative activity, 0.01 µg/ml (human OX40 (human)): 0.26; Experiment 1 relative activity, 0.1 µg/ml (human OX40 (human)): 0.48; Experiment 1 relative activity, 1 µg/ml (human OX40 (human)): 0.36; Experiment 2 CFSE fluorescence intensity, 0.1 µg/ml (human OX40 (human)): 2160; Experiment 2 CFSE fluorescence intensity, 1 µg/ml (human OX40 (human)): 1600; Experiment 2 average relative activity (human OX40 (human)): 0.52; Experiment 2 relative activity, 0.1 µg/ml (human OX40 (human)): 0.37; Experiment 2 relative activity, 1 µg/ml (human OX40 (human)): 0.67
B3 | – | – | – | – | – | – | – | – | – | Average increased factor of the activity over wild-type IgG2 of two experiments (human OX40 (human)): 9.75; Average relative activity of two experiments (human OX40 (human)): 0.43; Experiment 1 CFSE fluorescence intensity, 0.01 µg/ml (human OX40 (human)): 912; Experiment 1 CFSE fluorescence intensity, 0.1 µg/ml (human OX40 (human)): 812; Experiment 1 CFSE fluorescence intensity, 1 µg/ml (human OX40 (human)): 816; Experiment 1 average relative activity (human OX40 (human)): 0.36; Experiment 1 relative activity, 0.01 µg/ml (human OX40 (human)): 0.24; Experiment 1 relative activity, 0.1 µg/ml (human OX40 (human)): 0.42; Experiment 1 relative activity, 1 µg/ml (human OX40 (human)): 0.41; Experiment 2 CFSE fluorescence intensity, 0.1 µg/ml (human OX40 (human)): 2050; Experiment 2 CFSE fluorescence intensity, 1 µg/ml (human OX40 (human)): 1650; Experiment 2 average relative activity (human OX40 (human)): 0.53; Experiment 2 relative activity, 0.1 µg/ml (human OX40 (human)): 0.43; Experiment 2 relative activity, 1 µg/ml (human OX40 (human)): 0.64
B4 | 11.4 ratio | 0.01% | 0.09% | – | – | – | – | – | – | –
B5 | 3.8 ratio | 0.49% | 1.88% | 122 ratio | 4.07 ratio | 1880 ratio | 1340 ratio | 0.12% | 0% | –
B6 | 2.94 ratio | 0.42% | 1.22% | 214 ratio | 2.92 ratio | 1840 ratio | 1310 ratio | 0.14% | 0% | –
B7 | 7.11 ratio | 0.95% | 6.76% | 60.5 ratio | 3.84 ratio | 1650 ratio | 1180 ratio | 0.25% | 0% | –
B8 | 5.2 ratio | 0.24% | 1.23% | 32.7 ratio | 9.34 ratio | 1590 ratio | 1130 ratio | 0.03% | 0% | –
B9 | 1.95 ratio | 2.13% | 4.15% | 99.9 ratio | 12.8 ratio | 2500 ratio | 1780 ratio | 0.17% | 0% | –
B10 | 12.6 ratio | 0.01% | 0.11% | – | 6.97 ratio | – | – | 0% | – | –
B11 | 0.78 ratio | 17.1% | 13.3% | 229 ratio | 6.6 ratio | 1180 ratio | 844 ratio | 2.59% | 0.01% | –
